We go through one molecule from patent publication US20050079613A1, “Downregulation of cell surface glycoproteins by a family of human ubiquitin ligases” (Oregon Health & Science University, priority 2002, published 2005).

The data set has as its system ubiquitin. As to the kind of experiment: In vitro ubiquitination assay with GST-fused RING-CH (PHD) domains, E1, E2 panel, anti-ubiquitin immunoblot. Type of data set: biochemical. The following applies: E2 = UbCH2. The method, then:
Ubiquitination assay. UbCH2 and UbCH3 were obtained from Boston Biochem. (His)6-UbCH5a and GST fusion proteins were expressed in BL21-DE3 cells (Stratagene) and BL21 cells (Amersham), respectively, and purified as previously described (Boutell, C., S. Sadis and R. D. Everett, J. Virol. 76:841-850, 2002; Tiwari, S. and A. M. Weissman, J. Biol. Chem. 276:16193-16200, 2001). Purified E3 proteins were stored at 4° C., and E2 proteins were stored at −80° C. In vitro reaction mixtures (20 μl total) included: 50 nM rabbit E1 (Boston Biochem), 28 μM Ubiquitin, 5 mM ATP, 50 mM Tris-HCl pH 7.5, 50 mM NaCl, and 2 mM DTT. E2 enzymes were used at concentrations varying from 0.1 to 2.3 μM, and E3 concentrations ranged from 3 to 30 μM. After 90 minutes of incubation at 30° C., reactions were stopped by boiling in SDS sample buffer. Samples were electrophoresed through 12% polyacrylamide SDS gels and blotted using anti-ubiquitin mouse antibody, P4D1 (Santa Cruz Biotech).
In vitro reaction mixtures (20 μl total) included: 50 nM rabbit E1 (Boston Biochem), 28 μM Ubiquitin, 10 mM ATP, 50 mM Tris-HCl pH 7.5, 50 mM NaCl, and 2 mM DTT. E2 enzymes were used at concentrations varying from 0.7 to 2.3 μM, and E3 concentrations ranged from 3 to 25 μM. After 90 minutes of incubation at 30° C., reactions were stopped by addition of 4×reducing sample buffer. Samples were electrophoresed through 12% SDS gels and blotted using anti-ubiquitin mouse antibody (Santa Cruz Biotech).
To examine if the RING-CH domains of MARCH-I and MARCH-II would act as ubiquitin ligases in vitro, DNA fragments encoding the amino-terminal RING-CH-domain of both proteins were fused to Glutathione-S-transferase. The resulting constructs were sequence confirmed and expression of GST-MARCH protein verified by immunoblot. The GST-fusion protein was expressed and purified from E. coli cultures using Glutathione-columns. The ICP0-RING-domain was also purified, in parallel with the MARCH-I and MARCH-II constructs. A panel of E2 enzymes was either purchased from commercial sources or purified either by nickel-chelate chromatography or on glutathione columns. All E2-enzymes formed mercapto-ethanol-sensisitve complexes with ubiquitin thus showing ubiquitin conjugating activity. Purified ubiquitin and E1 was obtained from commercial sources.
To examine if the RING-CH domains of MARCH proteins act as ubiquitin ligases in vitro, a DNA fragment encoding the amino-terminal RING-CH-domains of MARCH-I, II, IV and VIII were fused to Glutathione-S-transferase (GST) for bacterial expression. The GST-fusion proteins were purified from E. coli cultures using Glutathione-sepharose-columns. Approximately thirty E2 proteins are found in the human genome compared to only one E1 enzyme (Pickart, 2001, supra). […] The specificity and selectivity of E3s with respect to E2s, however, is not well characterized. To cover a spectrum of E2s, a panel of E2 enzymes (Mansouri et al., 2003, supra) was acquired. The various E2 enzymes were incubated with or without the RING-CH-GST fusions in the presence of ubiquitin, ATP, E1. The formation of multiubiquitin-adducts was examined by immunoblotting with antibodies against ubiquitin.
For orientation: In western blotting, separated proteins are transferred to a membrane and probed.

B1: MARCH-IV: human membrane-associated RING-CH ubiquitin ligase, SEQ ID NOS:45 and 57; construct used lacks the first 63 amino-acids (protein)
chain: WYCYGLCAPAPQMLRHQGLLKCRCRMLFNDLKVFLLRRPPQAPLPMHGDPQPPGLAANNTLPALGAGGWAGWRGPREVVGREPPPVPPPPPLPPSSVEDDWGGPATEPPASLLSSASSDDFCKEKTEDRYSLGSSLDSGMRTPLCRICFQGPEQGELLSPCRCDGSVKCTHQPCLIKWISERGCWSCELCYYKYHVIAISTKNPLQWQAISLTVIEKVQVAAAILGSLFLIASISWLIWSTFSPSARWQRQDLLFQICYGMYGFMDVVCIGLIIHEGPSVYRIFKRWQAVNQQWKVLNYDKTKDLEDQKAGGRTNPRTSSSTQANIPSSEEETAGTPAPEQGPAQAAGHPSGPLSHHHCAYTILHILSHLRPHEQRSPPGSSRELVMRVTTV
B1: the “ubiquitin ligase activity with UbCH2” value was “mostly active”.
